Source: US20050153287A1, “Nr3b nmda receptor subunit compositions and related methods” (priority 2001, published 2005)

Experiments:
Format in all cases: cell-based
[1] = system: NR1 and NR2A tagged with GFP; assay: Expression levels of GFP-tagged NR1 and NR2A by fluorescence intensity; conditions: presence or absence of NR3B; NR1 and NR2A individually expressed with NR3B
Description: (§1) To express the receptors in HEK293 cells, the cells were transfected with 1 μg of each plasmid unless otherwise stated (Shi et al., 1999). The NR1 and NR2A were tagged with green fluorescent protein (GFP) on the extracellular domain to facilitate the identification of transfected cells. […] NMDA receptor mediated current was recorded in the presence of 10 μM glycine. AMPA receptor current was recorded as described (Shi et al., 1999). Pipette solutions contained (in mM) Cs-methanesulfonate 110; CsCl 30; NaCl 4; HEPES 10; EGTA 5; CaCl2 0.5 adjusted to pH 7.3 with CsOH. 1 mM glutamate (for NMDA receptor) or kainate (for AMPA receptor) was pressure (1.0 PSI) applied through a puffer pipette positioned ˜10 μm to the cells. A program based on Igor (WaveMetrics, Inc., Lake Oswego, Oreg.) was used to acquire data on a Macintosh computer.
The electrophysiological properties of NR3B were tested by expressing NR3B in HEK293 cells. A conventional NMDA receptor channel is formed by a heteromeric combination of NR1, which is a key subunit for functionality, and at least one NR2 subunit, which is modulatory (Dingledine et al., 1999). […] NR1 and NR2A tagged with GFP were individually expressed with NR3B and their expression levels were measured by the fluorescence intensity. The statistical significance in this figure was assessed by Kolmogorov-Smirnov test. […]

[2] = system: AMPA receptor (GluR2-(R586Q)); assay: Kainate-induced AMPA receptor current in transfected HEK293 cells; conditions: coexpression of NR3B with GluR2-(R586Q) in HEK293 cells
Description: as §1

[3] = system: NMDA receptor (NR1 and NR2A); assay: Glutamate-induced whole-cell current in transfected HEK293 cells
Description: as §1

B1: NR3B: mouse NR3B NMDA receptor subunit polypeptide (SEQ ID NO: 2), expressed from cDNA plasmid in HEK293 cells (protein, listed as Mus musculus)
chain: MECVQTLWLSLALALARGSWVVRGHPQPCGVPTRAGASVRLAALLPRAPAARARVLAALATPSPRLPHNLSLELVAVASPTRDPASLARGLCQVLAPPGVVASITFPEARPELRLLQFLAAATETPVLSVLRREVRAPLGAPTPFHLQLDWASPLETILDVLVSLVRAHAWEDIALVLCRVRDPSGLVTLWTSRASQAPKFVLDLSQLDSGNDSLRATLALLGTLEGGGTPVSAAVLLGCSTAHAHEVLEAAPPGPQWLLGTPLPAEALPKTGLPPGVLVLGETGQPSLEAAVHDMVELVARALSSMALMHPERALLPAAVNCEDLKTGGSESTARTLARFLSNTSFQGRTGAVWVAGSSQVHVSRHFKVWSLRRDPLGAPAWATVGSWQDGQLDFQPGAAALRVPSPSGTQARPKLRVVTLVEHPFVFTRESDEDGQCPAGQLCLDPGTNDSARLDALFTALENGSVPRTLRRCCYGYCIDLLERLAEDLAFDFELYIVGDGKYGALRDGRWTGLVGDLLAGRAHMAVTSFSINSARSQVVDFTSPFFSTSLGIMVRTRDTASPIGAFMWPLHWSMWVGVFAALHLTALFLTLYEWRSPYGLTPRGRNRGTVFSYSSALNLCYAILFGRTVSSKTPKCPTGRFLMNLWAIFCLLVLSSYTANLAAVMVGDKTFEELSGIHDPKLHHPSQGFRFGTVWESSAEAYIKASFPEMHAHMRRHSAPTTPHGVAMLTSDPPKLNAFIMDKSLLDYEVSIDADCKLLTVGKPFAIEGYGIGLPQNSPLTSNLSEFISRYKSSGFIDLLHDKWYKMVPCGKRVFAVTETLQMGVYHLSGLFVLLCLGLGSALLTSLGEHVFYRLVLPRIRRGNKLQYWLHTSQKIHRALNTGPPEGQQERAEQECSGPKEEQPAADGAGRWRRVRRAVVERERRVRFLLEPGEAGGDHPWLCSNGPGVQAELRELELRIEAARERLRSALLRRGELRAQLGDGTRLRPLRLLHAAPAES
expression levels of NR1 and NR2A (GFP fluorescence) [1]: did not show any significant difference
AMPA receptor mediated current [2]: unchanged
glutamate-induced whole-cell current ([3]; NR3B coexpressed with NR1 and NR2A in HEK293 cells, compared with NR1 and NR2A alone): markedly depressed
formation of electrophysiologically functional channels ([3]; NR3B coexpressed with NR1 only (n=6)): did not result in electrophysiologically functional channels
formation of electrophysiologically functional channels ([3]; NR3B coexpressed with NR2A only (n=5)): did not result in electrophysiologically functional channels
current amplitude with increasing amount of NR3B plasmid ([3]; NR3B plasmid 0, 1 and 3 μg versus other subunits (each 1 μg), +60 mV, Mg2+-free solution): concomitant decrease in current amplitude
sensitivity of the remaining current to Mg2+ block ([3]; NR3B with NR1 and NR2A, presence or absence of 1 mM Mg2+): not affected
formation of electrophysiologically functional channels ([3]; expression of NR3B alone in HEK293 cells (n=6)): did not result in electrophysiologically functional channels
